# Target: T1, human IGF-1R(1-903)-Fc (human, UniProt P08069 31-933)
# T1 construct: also called hIGF-1R-Fc; SDWT; not shown: human IgG1 Fc, C-terminal tag
# Test: biolayer interferometry (Octet), IGF-1R Fc on Protein A sensors, scFv culture supernatant
# Parameters: unit not given here
# Excerpt: Individual transformed colonies were picked into deep-well 96 well dishes and processed for screening as described above. […] For off-rate analyses IGF-1R Fc was immobilized onto the surface of Protein A biosensors. […] ScFvs were allowed to bind to immobilized IGF-1R Fc for 300-seconds. Off-rate was subsequently assayed for 600 seconds.
# T1 sequence (P08069 31-933): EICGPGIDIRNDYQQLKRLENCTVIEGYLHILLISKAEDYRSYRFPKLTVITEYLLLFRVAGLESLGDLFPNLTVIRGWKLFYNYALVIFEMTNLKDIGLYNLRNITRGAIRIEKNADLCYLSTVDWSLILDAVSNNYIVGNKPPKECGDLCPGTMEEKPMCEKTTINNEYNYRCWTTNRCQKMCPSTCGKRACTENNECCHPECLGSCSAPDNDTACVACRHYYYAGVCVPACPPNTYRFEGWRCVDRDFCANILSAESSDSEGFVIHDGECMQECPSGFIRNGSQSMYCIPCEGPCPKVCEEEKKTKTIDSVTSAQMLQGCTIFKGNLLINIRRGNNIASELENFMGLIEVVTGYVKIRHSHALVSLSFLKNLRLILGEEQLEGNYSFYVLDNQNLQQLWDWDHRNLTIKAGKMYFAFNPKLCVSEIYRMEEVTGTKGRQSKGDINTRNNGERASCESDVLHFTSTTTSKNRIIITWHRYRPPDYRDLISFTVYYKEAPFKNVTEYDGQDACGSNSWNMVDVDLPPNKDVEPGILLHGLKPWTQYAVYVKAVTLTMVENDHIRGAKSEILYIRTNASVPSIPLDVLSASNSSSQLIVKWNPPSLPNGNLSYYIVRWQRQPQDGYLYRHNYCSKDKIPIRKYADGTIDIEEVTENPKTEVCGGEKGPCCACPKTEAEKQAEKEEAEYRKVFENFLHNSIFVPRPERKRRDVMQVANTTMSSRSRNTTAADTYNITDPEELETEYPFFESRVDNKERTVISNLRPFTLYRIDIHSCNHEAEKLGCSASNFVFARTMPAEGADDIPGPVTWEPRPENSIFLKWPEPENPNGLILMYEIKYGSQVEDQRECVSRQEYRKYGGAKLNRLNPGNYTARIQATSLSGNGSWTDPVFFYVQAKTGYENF
row,Binder,"Kd (1/sec), off-rate as tabulated (XWU092 = 1.00)"
1,"MJF018, C06 (VL/GS3/VH) scFv with VL V15N (scFv, Kabat positions) scFv: DIQMTQSPLSLSASNGDRVTITCQASRDIRNYLNWYQQKPGKAPKLLIYDASSLQTGVPSRFGGSGSGTDFSFTIGSLQPEDIATYYCQQFDSLPHTFGQGTKLEIKGGGGSGGGGSGGGGSEVQLLESGGGLVQPGGSLRLSCAASGFTFSIYRMQWVRQAPGKGLEWVSGISPSGGTTWYADSVKGRFTISRDNSKNTLYLQMNSLRAEDTAVYYCARWSGGSGYAFDIWGQGTMVTVSSDDDKSFLEQKLISEEDLNSAVDHHHHHH",1.16
2,"MJF015, C06 (VL/GS3/VH) scFv with VH W47F (scFv, name in Kabat numbering, Kabat positions) scFv: DIQMTQSPLSLSASVGDRVTITCQASRDIRNYLNWYQQKPGKAPKLLIYDASSLQTGVPSRFGGSGSGTDFSFTIGSLQPEDIATYYCQQFDSLPHTFGQGTKLEIKGGGGSGGGGSGGGGSEVQLLESGGGLVQPGGSLRLSCAASGFTFSIYRMQWVRQAPGKGLEFVSGISPSGGTTWYADSVKGRFTISRDNSKNTLYLQMNSLRAEDTAVYYCARWSGGSGYAFDIWGQGTMVTVSSDDDKSFLEQKLISEEDLNSAVDHHHHHH",1.37
3,"MJF033, C06 (VL/GS3/VH) scFv with VL T20R, R30N; VH S21E (scFv, name in Kabat numbering, Kabat positions) scFv: DIQMTQSPLSLSASVGDRVRITCQASRDINNYLNWYQQKPGKAPKLLIYDASSLQTGVPSRFGGSGSGTDFSFTIGSLQPEDIATYYCQQFDSLPHTFGQGTKLEIKGGGGSGGGGSGGGGSEVQLLESGGGLVQPGGSLRLECAASGFTFSIYRMQWVRQAPGKGLEWVSGISPSGGTTWYADSVKGRFTISRDNSKNTLYLQMNSLRAEDTAVYYCARWSGGSGYAFDIWGQGTMVTVSSDDDKSFLEQKLISEEDLNSAVDHHHHHH",0.78
4,"MJF022, C06 (VL/GS3/VH) scFv with VL V15R (scFv, Kabat positions) scFv: DIQMTQSPLSLSASRGDRVTITCQASRDIRNYLNWYQQKPGKAPKLLIYDASSLQTGVPSRFGGSGSGTDFSFTIGSLQPEDIATYYCQQFDSLPHTFGQGTKLEIKGGGGSGGGGSGGGGSEVQLLESGGGLVQPGGSLRLSCAASGFTFSIYRMQWVRQAPGKGLEWVSGISPSGGTTWYADSVKGRFTISRDNSKNTLYLQMNSLRAEDTAVYYCARWSGGSGYAFDIWGQGTMVTVSSDDDKSFLEQKLISEEDLNSAVDHHHHHH",0.76
5,"MJF016, C06 (VL/GS3/VH) scFv with VL D70E (scFv, Kabat positions) scFv: DIQMTQSPLSLSASVGDRVTITCQASRDIRNYLNWYQQKPGKAPKLLIYDASSLQTGVPSRFGGSGSGTEFSFTIGSLQPEDIATYYCQQFDSLPHTFGQGTKLEIKGGGGSGGGGSGGGGSEVQLLESGGGLVQPGGSLRLSCAASGFTFSIYRMQWVRQAPGKGLEWVSGISPSGGTTWYADSVKGRFTISRDNSKNTLYLQMNSLRAEDTAVYYCARWSGGSGYAFDIWGQGTMVTVSSDDDKSFLEQKLISEEDLNSAVDHHHHHH",1.03
6,"MJF026, C06 (VL/GS3/VH) scFv with VL V15S; VH T110V (scFv, name in Kabat numbering, Kabat positions) scFv: DIQMTQSPLSLSASSGDRVTITCQASRDIRNYLNWYQQKPGKAPKLLIYDASSLQTGVPSRFGGSGSGTDFSFTIGSLQPEDIATYYCQQFDSLPHTFGQGTKLEIKGGGGSGGGGSGGGGSEVQLLESGGGLVQPGGSLRLSCAASGFTFSIYRMQWVRQAPGKGLEWVSGISPSGGTTWYADSVKGRFTISRDNSKNTLYLQMNSLRAEDTAVYYCARWSGGSGYAFDIWGQGTMVVVSSDDDKSFLEQKLISEEDLNSAVDHHHHHH",0.99
7,"MJF024, C06 (VL/GS3/VH) scFv with VL V15A (scFv, Kabat positions) scFv: DIQMTQSPLSLSASAGDRVTITCQASRDIRNYLNWYQQKPGKAPKLLIYDASSLQTGVPSRFGGSGSGTDFSFTIGSLQPEDIATYYCQQFDSLPHTFGQGTKLEIKGGGGSGGGGSGGGGSEVQLLESGGGLVQPGGSLRLSCAASGFTFSIYRMQWVRQAPGKGLEWVSGISPSGGTTWYADSVKGRFTISRDNSKNTLYLQMNSLRAEDTAVYYCARWSGGSGYAFDIWGQGTMVTVSSDDDKSFLEQKLISEEDLNSAVDHHHHHH",0.89
8,"MJF020, C06 (VL/GS3/VH) scFv with VL V15E (scFv, Kabat positions) scFv: DIQMTQSPLSLSASEGDRVTITCQASRDIRNYLNWYQQKPGKAPKLLIYDASSLQTGVPSRFGGSGSGTDFSFTIGSLQPEDIATYYCQQFDSLPHTFGQGTKLEIKGGGGSGGGGSGGGGSEVQLLESGGGLVQPGGSLRLSCAASGFTFSIYRMQWVRQAPGKGLEWVSGISPSGGTTWYADSVKGRFTISRDNSKNTLYLQMNSLRAEDTAVYYCARWSGGSGYAFDIWGQGTMVTVSSDDDKSFLEQKLISEEDLNSAVDHHHHHH",0.76
9,"MJF029, C06 (VL/GS3/VH) scFv with VL T20R, R30Y (scFv, Kabat positions) scFv: DIQMTQSPLSLSASVGDRVRITCQASRDIYNYLNWYQQKPGKAPKLLIYDASSLQTGVPSRFGGSGSGTDFSFTIGSLQPEDIATYYCQQFDSLPHTFGQGTKLEIKGGGGSGGGGSGGGGSEVQLLESGGGLVQPGGSLRLSCAASGFTFSIYRMQWVRQAPGKGLEWVSGISPSGGTTWYADSVKGRFTISRDNSKNTLYLQMNSLRAEDTAVYYCARWSGGSGYAFDIWGQGTMVTVSSDDDKSFLEQKLISEEDLNSAVDHHHHHH",0.68
10,"MJF014, C06 (VL/GS3/VH) scFv with VL M4L (scFv, Kabat positions) scFv: DIQLTQSPLSLSASVGDRVTITCQASRDIRNYLNWYQQKPGKAPKLLIYDASSLQTGVPSRFGGSGSGTDFSFTIGSLQPEDIATYYCQQFDSLPHTFGQGTKLEIKGGGGSGGGGSGGGGSEVQLLESGGGLVQPGGSLRLSCAASGFTFSIYRMQWVRQAPGKGLEWVSGISPSGGTTWYADSVKGRFTISRDNSKNTLYLQMNSLRAEDTAVYYCARWSGGSGYAFDIWGQGTMVTVSSDDDKSFLEQKLISEEDLNSAVDHHHHHH",0.86
11,"MJF017, C06 (VL/GS3/VH) scFv with VL T74S (scFv, Kabat positions) scFv: DIQMTQSPLSLSASVGDRVTITCQASRDIRNYLNWYQQKPGKAPKLLIYDASSLQTGVPSRFGGSGSGTDFSFSIGSLQPEDIATYYCQQFDSLPHTFGQGTKLEIKGGGGSGGGGSGGGGSEVQLLESGGGLVQPGGSLRLSCAASGFTFSIYRMQWVRQAPGKGLEWVSGISPSGGTTWYADSVKGRFTISRDNSKNTLYLQMNSLRAEDTAVYYCARWSGGSGYAFDIWGQGTMVTVSSDDDKSFLEQKLISEEDLNSAVDHHHHHH",1.02
12,"MJF021, C06 (VL/GS3/VH) scFv with VL V15I (scFv, Kabat positions) scFv: DIQMTQSPLSLSASIGDRVTITCQASRDIRNYLNWYQQKPGKAPKLLIYDASSLQTGVPSRFGGSGSGTDFSFTIGSLQPEDIATYYCQQFDSLPHTFGQGTKLEIKGGGGSGGGGSGGGGSEVQLLESGGGLVQPGGSLRLSCAASGFTFSIYRMQWVRQAPGKGLEWVSGISPSGGTTWYADSVKGRFTISRDNSKNTLYLQMNSLRAEDTAVYYCARWSGGSGYAFDIWGQGTMVTVSSDDDKSFLEQKLISEEDLNSAVDHHHHHH",0.81
13,"MJF027, C06 (VL/GS3/VH) scFv with VL Q24K (scFv, Kabat positions) scFv: DIQMTQSPLSLSASVGDRVTITCKASRDIRNYLNWYQQKPGKAPKLLIYDASSLQTGVPSRFGGSGSGTDFSFTIGSLQPEDIATYYCQQFDSLPHTFGQGTKLEIKGGGGSGGGGSGGGGSEVQLLESGGGLVQPGGSLRLSCAASGFTFSIYRMQWVRQAPGKGLEWVSGISPSGGTTWYADSVKGRFTISRDNSKNTLYLQMNSLRAEDTAVYYCARWSGGSGYAFDIWGQGTMVTVSSDDDKSFLEQKLISEEDLNSAVDHHHHHH",1.12
14,"MJF023, C06 (VL/GS3/VH) scFv with VL L11G, V15N (scFv, Kabat positions) scFv: DIQMTQSPLSGSASNGDRVTITCQASRDIRNYLNWYQQKPGKAPKLLIYDASSLQTGVPSRFGGSGSGTDFSFTIGSLQPEDIATYYCQQFDSLPHTFGQGTKLEIKGGGGSGGGGSGGGGSEVQLLESGGGLVQPGGSLRLSCAASGFTFSIYRMQWVRQAPGKGLEWVSGISPSGGTTWYADSVKGRFTISRDNSKNTLYLQMNSLRAEDTAVYYCARWSGGSGYAFDIWGQGTMVTVSSDDDKSFLEQKLISEEDLNSAVDHHHHHH",0.68
15,"MJF031, C06 (VL/GS3/VH) scFv with VL R30N (scFv, Kabat positions) scFv: DIQMTQSPLSLSASVGDRVTITCQASRDINNYLNWYQQKPGKAPKLLIYDASSLQTGVPSRFGGSGSGTDFSFTIGSLQPEDIATYYCQQFDSLPHTFGQGTKLEIKGGGGSGGGGSGGGGSEVQLLESGGGLVQPGGSLRLSCAASGFTFSIYRMQWVRQAPGKGLEWVSGISPSGGTTWYADSVKGRFTISRDNSKNTLYLQMNSLRAEDTAVYYCARWSGGSGYAFDIWGQGTMVTVSSDDDKSFLEQKLISEEDLNSAVDHHHHHH",0.59
16,"MJF025, C06 (VL/GS3/VH) scFv with VL V15P (scFv, Kabat positions) scFv: DIQMTQSPLSLSASPGDRVTITCQASRDIRNYLNWYQQKPGKAPKLLIYDASSLQTGVPSRFGGSGSGTDFSFTIGSLQPEDIATYYCQQFDSLPHTFGQGTKLEIKGGGGSGGGGSGGGGSEVQLLESGGGLVQPGGSLRLSCAASGFTFSIYRMQWVRQAPGKGLEWVSGISPSGGTTWYADSVKGRFTISRDNSKNTLYLQMNSLRAEDTAVYYCARWSGGSGYAFDIWGQGTMVTVSSDDDKSFLEQKLISEEDLNSAVDHHHHHH",1.18
17,"conventional C06 (VL/GS3/VH) scFv (pXWU092) (scFv, also called WT C06 scFv) scFv: DIQMTQSPLSLSASVGDRVTITCQASRDIRNYLNWYQQKPGKAPKLLIYDASSLQTGVPSRFGGSGSGTDFSFTIGSLQPEDIATYYCQQFDSLPHTFGQGTKLEIKGGGGSGGGGSGGGGSEVQLLESGGGLVQPGGSLRLSCAASGFTFSIYRMQWVRQAPGKGLEWVSGISPSGGTTWYADSVKGRFTISRDNSKNTLYLQMNSLRAEDTAVYYCARWSGGSGYAFDIWGQGTMVTVSS",1
18,"MJF045, stabilized C06 (I83E) scFv (scFv, Variant of pXWU092 with VL I83E (Kabat); also called C06 VL I83E scFv) scFv: DIQMTQSPLSLSASVGDRVTITCQASRDIRNYLNWYQQKPGKAPKLLIYDASSLQTGVPSRFGGSGSGTDFSFTIGSLQPEDEATYYCQQFDSLPHTFGQGTKLEIKGGGGSGGGGSGGGGSEVQLLESGGGLVQPGGSLRLSCAASGFTFSIYRMQWVRQAPGKGLEWVSGISPSGGTTWYADSVKGRFTISRDNSKNTLYLQMNSLRAEDTAVYYCARWSGGSGYAFDIWGQGTMVTVSS",1.47

# From US20090130105A1 (Biogen, published 2009)
